# US6897197
# Biological target: human MDM2, full length (CMV driven expression construct pCHDM1A) (human) (UniProt Q00987)
# Test: cell-based or functional assay
# Chain of human MDM2, full length (CMV driven expression construct pCHDM1A) (human) (Q00987 whole entry): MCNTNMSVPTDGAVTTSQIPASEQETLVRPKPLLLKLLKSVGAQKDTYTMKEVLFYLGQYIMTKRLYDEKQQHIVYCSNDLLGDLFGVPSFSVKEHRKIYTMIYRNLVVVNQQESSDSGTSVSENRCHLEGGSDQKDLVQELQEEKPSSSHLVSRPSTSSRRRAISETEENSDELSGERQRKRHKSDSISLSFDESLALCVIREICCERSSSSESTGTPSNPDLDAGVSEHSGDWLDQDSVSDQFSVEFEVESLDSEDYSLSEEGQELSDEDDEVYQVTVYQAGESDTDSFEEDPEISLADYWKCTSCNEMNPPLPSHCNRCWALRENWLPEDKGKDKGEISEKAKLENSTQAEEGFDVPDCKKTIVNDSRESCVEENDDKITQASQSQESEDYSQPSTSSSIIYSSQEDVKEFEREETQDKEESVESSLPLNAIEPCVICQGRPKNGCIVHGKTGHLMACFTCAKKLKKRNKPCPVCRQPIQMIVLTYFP
substance,measurement,value
"mouse p19^ARF (complete ORF, expression construct in pVNic) (from UniProt Q64364 1-169)",transformed foci in MDM2/RAS REF cotransformation with p19^ARF added (40 foci without),3 foci
